In patent US20050266512:

Test system: native proaerolysin

Substance: trypsin
- decrease in absorbance (erythrocyte lysis in response to channel formation by active aerolysin): The solid line represents native proaerolysin activated with trypsin.
